Test results reported in the supplement of paper PMC12042874.
± gives the uncertainty stated by the source.

assay: amyloid nucleation score (Sup35N fusion, yeast selection) (log enrichment); library NNK2; higher = more nucleation; inactive = no reads after selection
Summary of the method: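 Random libraries were run with three technical output replicates. In each, psi-negative yeast expressing Sup35N fused to peptides of 20 random codons were induced 24 hours with 100 μM copper sulfate and grown 7 days at 30°C on medium lacking adenine and uracil, and input and output plasmid inserts were Illumina-sequenced. The nucleation score is the DiMSum log enrichment of output over input reads, centred on the mode score of non-aggregating sequences, and sequences under 100 input reads were excluded.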

Substance	amyloid nucleation score
HIIASCTV	1.18 ± 0.38
HILMKN	-0.013 ± 0.42
HINFRSVITVV	-0.81 ± 0.44
HISCMKLLSRLGYTCESLMW	-1.19 ± 0.55
HIWTEVFIYVCSWRLYTTRV	-1.48 ± 0.64
HKETSFDGHFAICWCYTCRH	5.216 ± 0.046
HKGVLEINSRVETLRSSAVN	-0.545 ± 0.63
HKLFHLDSVQVYKQYGKEAI	1.16 ± 0.18
HKVQLVWPFVYLVEVQRRSG	2.85 ± 0.089
HLDPRAPSVVWTMADGEEDA	0.837 ± 0.22
HLFLRFADSSYWIS	1.24 ± 0.35
HLGSDRGDAWVANVKPERWD	1.03 ± 0.31
HLHPGVYLKPFDGCGIINGI	0.213 ± 0.8
HLLHGPFMSLGG	-0.973 ± 1
HLLHVSGLDEIEMWTGDF	-0.332 ± 0.39
HLLRKDVPQAWT	3.29 ± 0.11
HLPGYSPIDCRKGLVLGRCT	0.027 ± 0.54
HLRYGGFAV	0.085 ± 0.2
HLTNLDFT	-1.1 ± 0.44
HMAVNTTALAKNLITG	-0.401 ± 0.55
HMNFRWLYMSIYVISLLEAL	inactive
HMNYKYFWGGLFNRMLGQLN	inactive

Substance	amyloid nucleation score
HMSGLNGLGCLGTCLWLCSS	inactive
HNGIMFTCYLSP	5.944 ± 0.053
HNLLSRSAQPRGPLRPVRRH	2.35 ± 0.16
HNRYYGVIYVSLKICKLAFR	6.476 ± 0.027
HNYAVS	-0.711 ± 0.54
HPGMDF	inactive
HPHIFDLVVIYCQNGHV	6.92 ± 0.075
HPMQLLTSAQIKG	0.863 ± 0.41
HPSLVAGDWRFTGPLFCSLG	4.02 ± 0.071
HQDRERTRVPSIILFSLFTY	1.71 ± 0.17
HRDKLKVSPQITRSSFRRLS	0.423 ± 0.26
HRKAYEPWFGCNMTYAGLGN	-0.232 ± 0.65
HRRSFGSQMYL	inactive
HRSCVDTDVSDGWKGVESEA	0.599 ± 0.64
HRSLIIF	1.97 ± 0.19
HRVSMKEGVEC	0.256 ± 0.31
HRWVVWEYTGLAFYLAALEY	-0.469 ± 0.36
HSAIDMWS	-0.903 ± 0.44
HSFGRKYFFTF	-0.307 ± 0.55
HSFHTVSTARRLKQDPYMR	-0.387 ± 0.64
HSFNPNTCYLKGIDDALLGF	-0.838 ± 0.62
HSHPCDREFLPRMHAWLDSS	-0.135 ± 0.33

Substance	amyloid nucleation score
HSKGHILLTSNSNVFRLGRS	0.166 ± 0.62
HSLCLVVLGFML	5.428 ± 0.04
HSLLSYMFSFQLTNMNCDLG	-0.117 ± 0.56
HSLVTDEASCLTDRGHVGQV	1.22 ± 0.27
HSRKFADVKSWLTTDKKRIR	0.37 ± 0.48
HSVLEYFVTLCSNFLLWWVL	-0.192 ± 0.65
HTDSLLWIPRVHFCVFF	inactive
HTSSLF	-0.156 ± 0.3
HTVTKVTLRLVCTMGCFKMM	0.135 ± 0.65
HVCCLKLVRCAGGGFVVKHV	0.779 ± 0.18
HVGFHQKVRSELCRA	0.087 ± 0.51
HVISTSW	inactive
HVIVMYGSIY	3.19 ± 0.12
HVKASGP	0.339 ± 0.35
HVLTAGNHVGSVMNWHANEM	inactive
HVMCR	0.225 ± 0.19
HVRVYHPGQMNCSRYNTMQ	0.217 ± 0.65
HVVTCMRILFPSDKGSCFVK	-0.142 ± 0.37
HVVTRVSFESVFCLFTYF	3.83 ± 0.085
HWERLIGNLM	-0.791 ± 0.36
HWSAS	1.35 ± 0.47
HYAFVLGYKFYYGVANYCDG	0.886 ± 0.66

Substance	amyloid nucleation score
HYAVTYLLGYSVGRVLYLWK	-0.509 ± 0.79
HYSFYLVDYSFNISVGYFCT	0.571 ± 0.39
HYSMHVNGDTAAGTYAQAFC	-0.472 ± 0.76
HYSRI	0.647 ± 0.58
HYYLSTVSVYIGMPIRWFSG	0.371 ± 0.38
IAAVDENCRVVCQIIFLSKV	inactive
IAFYMLSWGMMLV	-0.074 ± 0.8
IAIFWSYWGDVIVYSGMVLE	-0.187 ± 0.55
IAIPSDF	-0.214 ± 0.49
IAKFTVMDFYGMVVAYSNCR	1.12 ± 0.42
ICAGISKKSGGTWSRARVCS	inactive
ICFYLLHDRIHHSWD	5.3 ± 0.096
ICIVGRWYRASVFRVLEDYR	inactive
ICLFDY	-2.02 ± 0.62
ICRDWVDDNVFKIMGRTQRS	0.099 ± 0.45
ICSPFVFGFCGTNFRRVLHR	6.978 ± 0.033
ICVMSQCTQMYRMKICGSLQ	0.568 ± 0.29
ICWPMGICLNNSDSVLLGEC	inactive
ICYKVLAMDLMLCMSGGVLV	2.1 ± 0.092
IDDARRYCRQNRFTVSMGNC	-0.112 ± 0.54
